Test results: patent US20110217291A1

Assays:
[1] = molecular target: human IgG1 antibody (Lambda from human myeloma plasma, Sigma-Aldrich) (human); assay: SPR (Biacore), IgG1 immobilized at 485 RU, receptor as analyte
[2] = molecular target: human IgG1 antibody (Lambda from human myeloma plasma, Sigma-Aldrich) (human); assay: SPR (Biacore 3000), IgG1 immobilized at 458 RU, receptor as analyte, 1:1 model
[3] = molecular target: IgG of IgG Sepharose 6 Fast Flow resin (GE Healthcare); assay: batch binding of 293F conditioned media to IgG Sepharose, Western blot quantitation, n=2
[4] = molecular target: human IgG1 antibody (Lambda from human myeloma plasma, Sigma-Aldrich) (human); assay: SPR (Biacore 3000), steady state, IgG1 immobilized at 1013 RU, receptor as analyte
[5] = molecular target: IgG of IgG Sepharose 6 Fast Flow resin (GE Healthcare); assay: IgG-Sepharose column, purified protein, Western blot
[6] = molecular target: IgG of IgG Sepharose 6 Fast Flow resin (GE Healthcare); assay: IgG-Sepharose column, 24 h CHO conditioned media, Western blot
[7] = molecular target: IgG of IgG Sepharose 6 Fast Flow resin (GE Healthcare); assay: IgG-Sepharose column, one-day conditioned media of CHO cells at 37° C., Western blot

Chain of untagged recombinant soluble human FcγRIA (P12314 16-282): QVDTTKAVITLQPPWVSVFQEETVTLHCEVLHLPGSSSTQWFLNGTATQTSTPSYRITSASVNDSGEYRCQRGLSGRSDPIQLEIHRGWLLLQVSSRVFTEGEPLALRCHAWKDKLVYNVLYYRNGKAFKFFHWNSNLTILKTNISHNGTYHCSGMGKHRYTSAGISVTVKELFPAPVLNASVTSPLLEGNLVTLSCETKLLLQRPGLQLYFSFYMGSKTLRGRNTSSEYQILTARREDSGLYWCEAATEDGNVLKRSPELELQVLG
Chain of FcγRIA-CH6 (extracellular domain of human FcγRIA with a C-terminal six His tag) (P12314 other isoform, or with tags, fused parts or gaps): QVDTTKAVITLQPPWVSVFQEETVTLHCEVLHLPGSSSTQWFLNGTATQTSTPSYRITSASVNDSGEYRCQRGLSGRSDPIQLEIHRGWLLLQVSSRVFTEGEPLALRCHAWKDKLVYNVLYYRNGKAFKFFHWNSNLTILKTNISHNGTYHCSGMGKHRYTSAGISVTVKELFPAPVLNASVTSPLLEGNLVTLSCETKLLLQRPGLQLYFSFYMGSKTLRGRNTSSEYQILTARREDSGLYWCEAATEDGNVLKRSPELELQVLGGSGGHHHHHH
Chain of aggregated FcγRIA (purified soluble FcγRIA incubated at 37° C.) (P12314 16-282): as the sequence (P12314 16-282) above
Chain of FcγRIIIA-CH6 (soluble monomeric human FcγRIIIA extracellular domain with C-terminal His6 tag) (P08637 other isoform, or with tags, fused parts or gaps): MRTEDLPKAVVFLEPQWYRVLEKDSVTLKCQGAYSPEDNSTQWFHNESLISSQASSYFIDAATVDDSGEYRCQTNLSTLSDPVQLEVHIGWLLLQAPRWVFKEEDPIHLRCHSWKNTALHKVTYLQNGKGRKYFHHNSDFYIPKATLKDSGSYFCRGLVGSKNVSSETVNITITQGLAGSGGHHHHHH

“FcγRIA-CH6 (extracellular domain of human FcγRIA with a C-terminal six His tag) (from UniProt P12314 16-282) (receptor)” was tested, and the Kd [1] was 0.17 nM, the koff [1] was 0.00046 s⁻¹ and the kon [1] was 2.8e+06 M⁻¹ s⁻¹. For the same substance, the Kd [2] was 0.17 nM, the koff [2] was 0.00046 s⁻¹ and the kon [2] was 2.8e+06 M⁻¹ s⁻¹. For the same substance, the percent of total expressed in IgG Sepharose flow-through (aggregate amount) [3] was 66% and the percent of total expressed recovered from IgG resin [3] was 21%.

Substance “FcγRIIA-CH6 (soluble monomeric human FcγRIIA extracellular domain with C-terminal His6 tag) (from UniProt P12318 34-212) (receptor)” has a Kd [4] of 1900 nM.

“FcγRIIIA-CH6 (soluble monomeric human FcγRIIIA extracellular domain with C-terminal His6 tag) (from UniProt P08637 18-195) (receptor)” was tested, and the Kd [4] was 630 nM.

“aggregated FcγRIA (purified soluble FcγRIA incubated at 37° C.) (from UniProt P12314 16-282) (receptor)” showed a percent of total in bound fraction [5] of 4% and a percent of total in unbound wash fraction [5] of 96%.

For “untagged recombinant soluble human FcγRIA (from UniProt P12314 16-282) (receptor)”, the Kd [1] was 0.17 nM, the koff [1] was 0.00046 s⁻¹ and the kon [1] was 2.8e+06 M⁻¹ s⁻¹. The percent of total applied bound to IgG-Sepharose [6] was 14%, the percent of total applied in the wash (unbound) [6] was 86% and the percent of recovered protein bound and eluted [7] was 20%. For the same substance, the percent of recovered protein in unbound fraction [7] was 80%.
